The target of this assay is FGFR3-TACC3 RT112 (fibroblast growth factor receptor 3 fused with transforming acidic coiled-coil-containing protein 3), 5F1Y variant, in SMA lipid particles. In words: mass photometry; RT112-SMALPs at 500 nM incubated on ice for 30 min with FGF1 at a 10x molar ratio, drop dilution into 50 mM HEPES, 500 mM NaCl, 0.5% v/v glycerol, 1 mM TCEP, pH 7.9, room temperature; compared with ligand-free RT112.

We go through one substance from publication PMC11758000.

As usually defined, the stoichiometry N is a count of units in the complex or per binding partner.

In the case of “FGFR3-TACC3 RT112 (fibroblast growth factor receptor 3 fused with transforming acidic coiled-coil-containing protein 3), 5F1Y variant, in SMA lipid particles”, the stoichiometry N was found to be 2.
